Measured values from the DeepSol protein solubility set.

test: soluble on expression in E. coli; label from the status in PepcDB or PDB records

For “MGSDKIHHHHHHNKIPTTMAFRTVTDVDNAVNGLYDLMSGSGYYGAAMFAYGDMKGDDMQSSEESGVCNTCYMFNHRPNSLNAGSLWGRPFYILREAWNILNAIAEGKIESGDEKKLNALKGETMAVIALCQFDLTRCFGYPYTKDKGASLGAPLIDHLVGTYENPPRSTVAQAYDFIIETLEEAVTLMSEEKNNGRMNKYAARALLARIYLYHDDNRKAFDLADQLIKDADTSGSYALYPHEKYVAAWSVEAKFGSESFFEIANSVDDTPGRDSWGYLLNWYGYQKGFVTQKYAEQMLADPGDVRGHLLEENKYAGKTVWWLYKLRGTDLKTAPLECNNVVLRLSEVYLIAAEAGCKLGGDAAVQGLGYLNEIVKRGNPDNEVTMADYTLDRVLDERSKELVGEGHRFFDLLRNGKTIVRKGGYHLPSVDEEVDWDFYKCVLPIPEDQFIFSPEMEQNPGYPKN”, which “soluble on expression in E. coli” value is on record?
Its value is “not soluble”.

Which “soluble on expression in E. coli” value does the source give for “MEPQLRCIGCGAAIQFENPKNAGYAPKSVLEKDAEEVICQRCFRLKHYNEVQDVPLDDDDFLSMLHRIGESKALVVNIVDIFDFNGSFIPGLPRFAADNPILLVGNKADLLPRSVKYPKLLRWMRRMAEELGLCPVDVCLVSAAKGIGMAKVMEAINRYREGGDVYVVGCTNVGKSTFINRIIEEATGKGNVITTSYFPGTTLDMIEIPLESGATLYDTPGIINHHQMAHFVDARDLKIITPKREIHPRVYQLNEGQTLFFGGLARLDYIKGGRRSFVCYMANELTVHRTKLEKADSLYANQLGELLSPPSKRYAAEFPPLVPRSLSVKERKTDIVFSGLGWVTCNDPGAQLVVHAPKGVDVFIRQSLI” here?
The value was “soluble”.

Which “soluble on expression in E. coli” value does the source give for “MAAVILESIFLKRSQQKKKTSPLNFKKRLFLLTVHKLSYYEYDFERGRRGSKKGSIDVEKITCVETVVPEKNPPPERQIPRRGEESSEMEQISIIERFPYPFQVVYDEGPLYVFSPTEELRKRWIHQLKNVIRYNSDLVQKYHPCFWIDGQYLCCSQTAKNAMGCQILENRNGSLKPGSSHRKTKKPLPPTPEEDQILKKPLPPEPAAAPVSTSELKKVVALYDYMPMNANDLQLRKGDEYFILEESNLPWWRARDKNGQEGYIPSNYVTEAEDSIEMYEWYSKHMTRSQAEQLLKQEGKEGGFIVRDSSKAGKYTVSVFAKSTGDPQGVIRHYVVCSTPQSQYYLAEKHLFSTIPELINYHQHNSAGLISRLKYPVSQQNKNAPSTAGLGYGSWEIDPKDLTFLKELGTGQFGVVKYGKWRGQYDVAIKMIKEGSMSEDEFIEEAKVMMNLSHEKLVQLYGVCTKQRPIFIITEYMANGCLLNYLREMRHRFQTQQLLEMCKDVCEAMEYLESKQFLHRDLAARNCLVNDQGVVKVSDFGLSRYVLDDEYTSSVGSKFPVRWSPPEVLMYSKFSSKSDIWAFGVLMWEIYSLGKMPYERFTNSETAEHIAQGLRLYRPHLASEKVYTIMYSCWHEKADERPTFKILLSNILDVMDEES” here?
Its value is “soluble”.

For “MGSDKIHHHHHHMNYTDTLKSVDLVLATGEVPLIIGESGIGKTALAKELAQQNQWSLVIINGNLLKEGEIGGLPTIESYVFSGPEAVNPLAATAAKTVGNEQGILQEKKSTVYAVHHKLREIDEAIARGQTVLLFIDEINRCEHTVQQELMNLILNREINGYILPEGVKILAAMNPSSKYGSDFDYQVVDMDAAQENRFVWLFMKPDHKQWIDWAIGAGIEPKVIEFISTFPDYLHKINEDDLRATPRSYERISSSYKIYQENKDSIPRSVFLNVVKGNVGRVIAEEFVNFAEADYSPLIAYDDIFSGTSLPESLRDKVKEESHTRLYLSARNILQTLESHLSKTPANAPDHAQSSMDRLVAFLKLYPVDLKIGIMKDIRSSYPEIYRQAIENEGFVDSYFESYGSLR”, which “soluble on expression in E. coli” value is on record?
The value was “not soluble”.

Which “soluble on expression in E. coli” value does the source give for “WRKKRKDAKNNEVSFSQIKPKKSKLIRVENFEAYFKKQQADSNCGFAEEYEDLKLIGISLPKYAAEIAENRGKNRYNNVLPYDISRVKLSVQTHSTDDYINANYMPGYHSKKDFIATQGPLPNTLKDFWRMVWEKNVYAIVMLTKCVEQGRTKCEEYWPSKQAQDYGDITVAMTSEVVLPEWTIRDFVVKNMQSSESHPLRQFHFTSWPDHGVPDTTDLLINFRYLVRDYMKQIPPESPILVHCSAGVGRTGTFIAIDRLIYQIENENTVDVYGIVYDLRMHRPLMVQTEDQYVFLNQCVLDIIRAQKDSKVDLIYQNTTAMTIYENLERVSMFGKANGYIA” here?
The value was “soluble”.

With “MGSDKIHHHHHHMDNKFKNIPKRHLPQKLPFDYTSIYTDPQIIKLTTRANIAIGTYEGFLESIINPMLLISPLLSQEAVLSSKLEGTHATLKDLLNYEAGNKVDIERDELHEIINYRKALFYALENISTINNIDSKGLPLSNRIIKEMHKILLDNVRGSSKNPGNFKRSQNYIGSVSSISYTPVPAEKTPEYMSNLEQYIHYDDLDLLVQSAIIHAQFEMIHPFEDGNGRIGRLLIPLFLYYQELLSYPTFYMSSYFERDRSLYISHLSNISKDNNWKDWFEYYLEGVILSAEESTKKAQDILSLYNIMKEQVIPKLNSVSGIQLLDFIFSAPIFKAEQVSEHLKISKRTTYTLLNKLIDEGYLSTDNAQRNRTYYCPQLLSIVQ” as the sequence, how does the “soluble on expression in E. coli” value read?
Its value is “not soluble”.

Which “soluble on expression in E. coli” value does the source give for “MKHICLYFQIHQPFRLKRYRFFDIGNDHYYYDDFRNEEIMRRITQKCYLPANLLLKEIIAEHPEFRVAFSISGTALEQLESYSPEALDTFRDLAETGCVEFLAETYAHSLSSLYDPEEFYNQTMIHSRRMEELFGVKPRVLRNTELIFSDNIATQVAEMGFQGMLTEGAKHILGWKSPNYLYKAGSAPELSLLLRNPRLSDAISAMFTRYDWNEYPLTADKMIRWIEETPEEEQIFNLFMNYEVLGSLHPQESGIFDFFRALPSLAKKSEGVKFATPSELIESSSPVAKFSSIYPISWVGEEKDTGTWLGNVLQQGACDKLEQWGERVRMIDDQRMLQDWLYLQSADHFYYMKTRGGDAGNFSPYETPYDAFNNYMNVLSDFLLRVEARYPSTIENEELKALLTTIRNQDKQIKKLEETIKRQKTKTT” here?
Its value is “not soluble”.

Which “soluble on expression in E. coli” value does the source give for “NSLTTHYRRSQLIALPVPGGKAKVEYCYAVNVPGDREIVTHSFAEWAVGDFNRQKETVLCDKLTAGSKITTECPSESFVGSRKHNGLSTSAKVMSMNASARSNSFVVNSGK” here?
Its value is “not soluble”.

Which “soluble on expression in E. coli” value does the source give for “MSLKPGDEVKVLTFGQKGTLLEKTGGNEWNVQIGILKMKVKEKDLEFIKSAPEPKKEKMITAVKGKDYHVSLELDLRGERYENALSRVEKYLDDAVLAGYPRVSIIHGKGTGALRKGVQDLLKNHRSVKSSRFGEAGEGGSGVTVVELKEGHHHHHH” here?
Its value is “not soluble”.

For “MRYFALTDLTKPTAKFTTDAMELRQISNAYLNQAQAYLQKGLKQLKKDYKNAILYTPKTEYKRFLKWKQTFLQDLNQTQKRFFIVRAQHFSYVLLFNLLDEQVEAVIATFNNFLDEHRLEAQSKQFDLDTAVNELHDYFDQLQKNTAYSEDLPTHLTQKTEQLINARNTQLTNLLNKIATTKPPLNKQQRLLASFRNYHEHLFLKNEVKKVTWLNEPRAKKESVTPDEEH”, which “soluble on expression in E. coli” value is on record?
Its value is “soluble”.

Which “soluble on expression in E. coli” value does the source give for “PQKICLICGDEASGCHYGVLTCGSCKVFFKRAMEGQHNYLCAGRNDCIVDKIRRKNCPACRLRKCCQAGMVLGGRKFK” here?
Its value is “soluble”.

For “GIPRNSSTGAKTAKSDKLKVVATNSIIADMTKAIAGDKIDLHSIVPIGQDPHEYEPLPEDAEKTSNADVIFYNGINLEDGGQAWFTKLVKNAQKTKNKDYFAVSDGIDVIYLEGASEKGKEDPHAWLNLENGIIYSKNIAKQLIAKDPKNKETYEKNLKAYVAKLEKLDKEAKSKFDAIAENKKLIVTSEGCFKYFSKAYGVPSAYIWEINTEEEGTPDQISSLIEKLKVIKPSALFVESSVDRRPMETVSKDSGIPIYSEIFTDSIAKKGKPGDSYYAMMKWNLDKISEGLAK”, which “soluble on expression in E. coli” value is on record?
The value was “soluble”.

For “MKQGTMKILFFVLKTKLLKNGEAPILMRITINGQYEETRIQRSVPLKLWNAAKGCSKGKDRASNELNSYLSELATRALEKYKELILEQAISTPSLILKRVFGKDTEMRTLLGTIRQEIKEMEKVVNIDYAPVTINRYKNVLKKLENSIPTFYDKEDITFHELTPEFIKAFDLHLKTEVGLCRNTIVRYMKCFKKITNMALAKGWMKKDAFYGYKMEQDETDPVFLTYDELQTVMNKEFTIPRLVLVRDIFIFACFTGLAFADVSTLKKEDLVQDNNGDWWIRKGRIKLMHRHKASSICNIPLLPVPLAILKKYENNPVCIKKGCCLPVPCNQKMNSYLKEIADFCGIKKNITTHAGRHTFGTTITLANNVPLQDVSVMLGHASTRMTQHYARVMNASLKKSMLNVKKRLTQ”, which “soluble on expression in E. coli” value is on record?
The value was “not soluble”.

With “MGVCFSAIRVTGASSSRRSSQTKSKAAPTPIDTKASTKRRTGSIPCGKRTDFGYSKDFHDHYTIGKLLGHGQFGYTYVAIHRPNGDRVAVKRLDKSKMVLPIAVEDVKREVQILIALSGHENVVQFHNAFEDDDYVYIVMELCEGGELLDRILSKKGNRYSEKDAAVVVRQMLKVAGECHLHGLVHRDMKPENFLFKSAQLDSPLKATDFGLSDFIKPGKRFHDIVGSAYYVAPEVLKRRSGPESDVWSIGVITYILLCGRRPFWDRTEDGIFKEVLRNKPDFSRKPWATISDSAKDFVKKLLVKDPRARLTAAQALSHAWVREGGNATDIPVDISVLNNLRQFVRYSRLKQFALRALASTLDEAEISDLRDQFDAIDVDKNGVISLEEMRQALAKDLPWKLKDSRVAEILEAIDSNTDGLVDFTEFVAAALHVHQLEEHDSEKWQLRSRAAFEKFDLDKDGYITPEELRMHTGLRGSIDPLLDEADIDRDGKISLHEFRRLLRTASISSQRAPSPAGHRNLR” as the sequence, how does the “soluble on expression in E. coli” value read?
Its value is “soluble”.

Which “soluble on expression in E. coli” value does the source give for “MGSDKIHHHHHHMLPRLLDRCAGMVSHDWTALDRDLRRFLPKKSVVSKRQELLVYDCDGLTIDRHCPPLAVLPETTEEVSQILACCHRHSIPFVARGSGTGLSGGALVEQEALLVVTSRMRRILSMDLDNHTITVQPGVINSWVTRAVAGEGFYYAPDPSSQVVCSIGGNVAENSGGVHCLKYGVTSNHVLGLEVVLADGTVTLLGGGLPEHAELDLRGAFIGSEGTLGIATAITLRLLRAPQHVTVLLADFPTMESAGEAVCQVTAAGVLPAGMEIMDNFMINAVNDLFGFDEYPRDAAAVLLIELDGQAAEVTVAADQASGLCSKAGARTIRRAEEPADRALLWKGRKSAFAAVGQISPTYYVQDGVVPRSTLPRVLMAIERLSREYELPVANVFHAGDGNLHPLILYNADTPDVESRVRDLGSAILRECLDVGGSITGEHGVGADKRCYLDWMFAADDLSTMKLLRRAFDPDGRANPDKIFPTPKSCGESARRQVILTSEGLEMPSEAKAF” here?
The value was “not soluble”.

With “MKHTIGILGGMGPAATADMLEKFVELRHASCDQQHIPLIVSSIPDIPDRTACLLSGGPSPYRYLERYLHMLEDAGAECIVIPCNTAHYWFDDLQNVAKARMISILDATLGDIPPSARHVGLLATNATLATGLYQKKALARGLTLIQPEDAGQALVMQAIYTLKRGDKTAAQALLLPQIDSLIARGAQAIIMGCTEIPLIVAGHERAIACPMIDSTASLVRAAIRWYESWPDTRASLTGEQRLTA” as the sequence, how does the “soluble on expression in E. coli” value read?
Its value is “not soluble”.

Which “soluble on expression in E. coli” value does the source give for “MSLGFIDAQREHFGVESICKALQVAPSGYWRRAARRSNPALLPARAKGDAELVPQIERVWTSNLQVYGYRKVWRQMLREGTAVARCTVERLMRLKGLQGARRGKKILTTVPDAKAPCPLDRVNRQFKADKPNQLWVSDFTYVSTWQGMVYVAFVVDVYARFIVGWRVSRSMRTDFVLDALEQALYARKPERDGALIHHSDRGLQYVSIRYSERLAEAGIEPSVGSKGDSYDNALAETINGLYKTELIHRRAPWKSKEAVELATLEWVSWFNHHRLMESLGYIPPAEAEANYHWQLAGQAMSVEGHHHHHH” here?
The value was “not soluble”.

With “GSSHCRFYENKYPEIDDIVMVNVQQIAEMGAYVKLLEYDNIEGMILLSELSRRRIRSIQKLIRVGKNDVAVVLRVDKEKGYIDLSKRRVSSEDIIKCEEKYQKSKTVHSILRYCAEKFQIPLEELYKTIAWPLSRKFGHAYEAFKLSIIDETVWEGIEPPSKDVLDELKNYISKR” as the sequence, how does the “soluble on expression in E. coli” value read?
The value was “soluble”.
